Experimental findings from patent US20110250203A1 (SYMPHOGEN A S, published 2011) are described below.

A word on the Kd: it is the constant that tells how readily two partners part at equilibrium. Broadly, the koff is the first-order rate constant of dissociation. Usually kon stands for a measure of how fast the partners come together.

The labels stand for the following.
T1: Recombinant human CD5 extracellular domain (CD5-ECD) (human, UniProt P06127 25-372)
T1 construct: In-house protein made as CD5-ECD - TEV site - hGH fusion; CD5-ECD isolated by TEV cleavage and nickel column; also called CD5-ECD protein
T1 sequence: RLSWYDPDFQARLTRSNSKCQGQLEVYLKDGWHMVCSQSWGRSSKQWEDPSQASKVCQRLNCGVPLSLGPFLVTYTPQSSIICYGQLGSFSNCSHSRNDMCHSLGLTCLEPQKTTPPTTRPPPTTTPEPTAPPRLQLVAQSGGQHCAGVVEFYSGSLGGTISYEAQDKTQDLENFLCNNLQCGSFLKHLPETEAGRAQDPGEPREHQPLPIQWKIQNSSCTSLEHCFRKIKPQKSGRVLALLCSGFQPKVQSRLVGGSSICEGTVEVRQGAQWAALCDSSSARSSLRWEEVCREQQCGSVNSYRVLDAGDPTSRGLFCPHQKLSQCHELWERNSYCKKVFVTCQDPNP

B1: Anti-CD5 antibody 23 (2H11) (antibody, V domains shown)
VH: EVQLQQSGPELVKPGTSVKISCKASGYTFTDYYINWVKQKPGQGLEWIGWIYPGGGNTRYIERFKGKATLTVDTSSSTAYMQLSSLTSEDTAVYFCARNGYWYFDV
VL: DIVLTQSPSSLTVTAGEKVTMSCKSSQSLLNQKNYLTWYQQKTGQPPKLLIYWASTRESGVPDRFTGSGSGTDFTLTISSVQAEDLAVYYCQNDYDYPYT
notes: also called Ab23; Clone 23
B2: Anti-CD5 antibody 1 (1D8) (antibody, human IgG1, V domains shown)
VH: EVQLQESGPELVKPEASVKISCKASGYSFTGYTMNWVKQSHGKNLEWIGLINPYNGGTTYNQKFKGKATLTVDTSSSTAFMELLSLTSEDSAVYYCARDYYGSSPDFDY
VL: DIVLTQSTSSLSASLGDRVTINCSASQGISNHLNWFQQKSDGTVKLLIYFTSSLHSGVPSRFSGSGSGTDYSLTISNLEPEDIAAYYCQQYSNLPYT
notes: also called Ab1; Clone 1
B3: Anti-CD5 antibody 34 (5O24) (antibody, human IgG1, V domains shown)
VH: EVKLVESGAELVRSGASVKLSCAASGFNIKDYYIHWVKQRPEQGLEWIGWIDPENGRTEYAPKFQGKATMTADTSSNTAYLQLSSLTSEDTAVYYCNNGNYVRHYYFDY
VL: DVVLTQSPAILSASPGEKVTMTCRAISSVSYMHWYQQKPGSSPKPWIYATSNLASGVPARFSGSGSGTSYSLTISRVEAEDAATYYCQQWSSNPRT
notes: also called Ab34; Clone 34
B4: Anti-CD5 antibody 8 (8G8) (antibody, human IgG1, V domains shown)
VH: QVQLKESGPELEKPGASVRISCKASGYSFTAYNINWVTQRDGKSLEWIGSIDPYYGDTKYNQKFKDKATLTVDKSSSTAHMQVKSLTSEDSAIYYCARRMITMGDWYFDV
VL: EIVLTQSPSSLSASLGDRVTISCRASQDISNYLNWYQRKPDGTVKLLIYYTSRLQSGVPSRFSGSGSGSEYSLTISNLDQEDIATYFCQQGDALPWT
notes: also called Ab8; Clone 8
B5: Anti-CD5 antibody 11 (4E24) (antibody, human IgG1, V domains shown)
VH: EVQLKESGAELVRPGGSVKISCKGSGYTFTNFAIHWVKQSHIKTLEWIGLISTSSGDVSYNQKFKDKATMTVDKSSSTAYMELARLTSEDSAIYYCARHYGANNYFDY
VL: EIVLTQSPTIMSASPGEQVTMTCRTNSSVSSSYLHWYQQKSGASPKLWIYGTSNLASGVPTRFSGSGSGTSYSLTISSVEAGDAATYFCQQYSGYPLT
notes: also called Ab11; Clone 11
B6: Anti-CD5 antibody 12 (4F10) (antibody, human IgG1, V domains shown)
VH: EVQLQESGAELVRPGVSVKISCKGSGYTFTNFAIHWVKQSHAKSLEWIGLISSNSGDVSYNQKFKGKATMTVDKSSSTAYMELARLTSEDSAIYYCARHYGAHNYFDY
VL: DIVLTQSPAIMSASPGEQVTMTCRATSSISSSYLHWYQQKSGASPKLWIYGTSNLASGVPTRFSGSGSGTSYSLTISSVEAEDAATYYCQQYSDYPLT
notes: also called Ab12; Clone 12
B7: Anti-CD5 antibody 15 (8E24) (antibody, human IgG1, V domains shown)
VH: QVTLKESGAELVRPGASVKLSCKASGYSFTSYWMNWVKQRPGQGLEWIGMIHPSDSETRLNQKFKDKATLTVDKSSSTAYMQLSSPTSEDSAVYYCARWGDHDDAMDF
VL: DIVLTQSPASLSASVGESVTITCRPSENIYGYFAWYQQRQGKSPQLLVYNAKTLAEGVPSRFSGSGSGTHFSLKINSLQPEDFGTYYCQHHYGTPFT
notes: also called Ab15; Clone 15
B8: Anti-CD5 antibody 9 (6M4) (antibody, human IgG1, V domains shown)
VH: QVQLKESGPELEKPGASVKISCKASGYSFTAYSMNWVKQNNGMSLEWIGSIDPYYGDTKYAQKFKGKATLTVDKASSTAYLQLKSLTSEDSAVYYCARRMITTGDWYFDV
VL: HIVLTQSPSSLSASLGDRVTISCRASQDISTYLNWYQQKPDGTVKLLIFYTSRLHAGVPSRFSGSGSGTHHSLTISNLEQEDIATYFCQQGNSLPFT
notes: also called Ab9; Clone 9
B9: Anti-CD5 antibody 17 (7H7) (antibody, human IgG1, V domains shown)
VH: EVQLVESGPGLVQPSQSLSITCTVSGFSLTNYDVHWVRQSPGKGLEWLGVIWNYGNTDYNAAFISRLSIRKDSSKSQVFFTMSSLQTPDTAIYYCARNHGDGYYNWYFDV
VL: NIVLTQSPSSLSESLGGKVTITCKASQDINKYIAWYQYKPGKGPRLLIHYTSTLQPGIPSRFSGSGSGRDYSFSISNLEPEDIATYYCLQYDNLWT
notes: also called Ab17; Clone 17
B10: Anti-CD5 antibody 31 (3P16) (antibody, human IgG1, V domains shown)
VH: EVQLKESGPELKKPGETVKISCMTSGYMFTNHGMNWVKQAPGKGLKWMGWINTYTGEPTYGDGFKGRFVFSLETSASTAYLQINNLKNEDTATYFCARRVATYFDV
VL: NIVLTQSPAILSVSPGERVSFSCRASQRIGTSMNWYQQRTNGSPRLLIKSASESISGIPSRFSGSGSGTDFTLSINSVESDDVADYYCQQSNSWPLT
notes: also called Ab31; Clone 31
B11: Anti-CD5 antibody 32 (4F3) (antibody, human IgG1, V domains shown)
VH: EVKLVESGPELKKPGETVKISCKASGYMFTNYGMNWVKQAPGKGLKWMGWINTYTGEPTYVEDFKGRFAFSLETSANTAYLQINNLKNEDTATYFCTRRSHITLDY
VL: DIVLTQSPVILSVSPGERVSLSCRASQSIGTSINWYQQRTDGSPRLLIKSASESMSGIPSRFSGSGSGTDFTLSITSVESEDIADYYCQQSNSWPLT
notes: also called Ab32; Clone 32
B12: Anti-CD5 antibody 14 (7P9) (antibody, human IgG1, V domains shown)
VH: EVQLKESGAELVKPGASVKLSCTASGFNIKDTYMHWVKQRPEQGLEWIGRIDPANGNTKYDPKFQGKATITADTSSNTAYLQLSSLTSEDTAVYYCAREENYYGTYYFDY
VL: NIVLTQSPASLAASVGETVTITCRASENIYYNLAWYQQKQGKSPQLLIYNANSLEDGVPSRFSGSGSGTQYSMKINSMQPEDTATYFCKQVYDVPFT
notes: also called Ab14; Clone 14
B13: Anti-CD5 antibody 29 (8E15) (antibody, human IgG1, V domains shown)
VH: QVQLKESGADLVKPGASVKLSCTASGFNIKDTYMNWVKERPEQGLEWIGRIDPANGNTKYDPKFQGKATITADTSSNTGYLQLSSLTSEDTAVYYCASYDPDY
VL: DIVLTQSPASLAASVGETVTITCRASENIYYNLAWYQQKQGKSPQLLIYNANSLEGGVPSRFSGSGSGTQYSMKINSMQPEDTATYFCKQAYDVPWT
notes: also called Ab29; Clone 29
B14: Anti-CD5 antibody 18 (1E7) (antibody, human IgG1, V domains shown)
VH: QVQLKESGGGLVQPGGSLKLSCAASGFTFSNYGMSWVRQIPDKRLELVAAINSNGDITYDPDSVKGRFTISRDNANNSLFLQMRSLKSEDTAMYYCARGTAWFTYWGQGTLVT
VL: DIVLTQSPASLSASVGETVIITCRASENIYSYLVWYQQKQGKSPQLLVYNAKTLAEGVPSRFSGSGSGTQFSLKINSLQSEDFGSYSCQHHYGYPYT
notes: also called Ab18; Clone 18
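Also: CM5 chip, binding curves at four CD5-ECD concentrations fitted globally, with the signal of a non-CD5-binding control antibody subtracted as reference.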

This experiment addresses T1, Recombinant human CD5 extracellular …. The experiment in a line: SPR (Biacore 2000), antibody captured by anti-human Fc, CD5-ECD in solution, 1:1 fit. (In general: SPR reads the build-up and loss of mass on a sensor chip optically.)
Protocol: SPR analysis was performed on a Biacore 2000 machine containing four flow cells. A CM5 Biacore chip was conjugated with 8.000 Resonance units (Ru) polyclonal anti-human IgG Fc-specific antibody to flow cells 1-4 according to the manufacturer's instructions. Each anti-CD5 antibody was determined for binding to four different concentrations of CD5-ECD (concentrations for the four cycles are shown below) before the affinity was calculated. The non-CD5 binding antibody, Erbitux served as a negative control and was subtracted from the values obtained with the anti-CD5 specific antibodies. […] Subsequently, all flow cells were washed and after waiting 500 s, 250 μl of CD5-ECD 100 nM or 200 nM (Cycle 1) was injected in Flow cells 1-4. After waiting 1000 s, 30 μl H3PO4 was injected using a flow rate of 60 μl/min. The antibody/antigen complex was then stripped with a low pH acid wash (30 sec. contact time with 100 mM H3PO4). […] Four new cycles were then repeated until all the anti-CD5 antibody clones were tested for binding to CD5 in four different concentrations. The association rate constant (ka) and dissociation constant (kd) were evaluated globally by fitting the four binding curves to predefined 1:1 (Langmuir) association and dissociation models with BIAevaluation 4.1 software (Biacore), Table 13.
B1: the Kd was determined as 4.79 nM, the koff was 0.000105 s⁻¹ and the on-rate constant (kon) amounted to 21900 M⁻¹ s⁻¹.
In the case of B2, the Kd came out at 5.19 nM, the koff turned out to be 0.000557 s⁻¹ and the kon was 107000 M⁻¹ s⁻¹.
For B3, the Kd is 61.3 nM, the koff was 0.00084 s⁻¹ and the kon was 13700 M⁻¹ s⁻¹.
Take B4: the Kd amounted to 0.37 nM, the koff is 9.81e-06 s⁻¹ and the kon came out at 26500 M⁻¹ s⁻¹.
With B5, the dissociation constant Kd is 0.315 nM, the koff was 2.2e-05 s⁻¹ and the kon was 69900 M⁻¹ s⁻¹.
For B6 the same measures were 1.18 nM, 0.000115 s⁻¹ and 97000 M⁻¹ s⁻¹.
B7: the Kd worked out at 23.4 nM, the koff amounted to 0.00127 s⁻¹ and the kon is 54400 M⁻¹ s⁻¹.
Taken in the same sequence, the figures for B8 were 4.35 nM, 6.17e-05 s⁻¹ and 14200 M⁻¹ s⁻¹.
Consider B9, for which the Kd came out at 0.164 nM, the koff is 8.45e-05 s⁻¹ and the kon is 515000 M⁻¹ s⁻¹.
Turning to B10, the Kd stood at 8.85 nM, the koff was found to be 0.000803 s⁻¹ and the kon turned out to be 90700 M⁻¹ s⁻¹.
Taken in the same sequence, the figures for B11 were 0.903 nM, 0.000116 s⁻¹ and 128000 M⁻¹ s⁻¹.
As to B12, the Kd is 5.6 nM, the koff was found to be 0.0018 s⁻¹ and the on-rate constant (kon) turned out to be 321000 M⁻¹ s⁻¹.
In the case of B13, the Kd is 2.09 nM, the koff amounted to 0.00137 s⁻¹ and the on-rate (kon) is 655000 M⁻¹ s⁻¹.
For B14, the Kd came out at 0.205 nM, the koff stood at 3.27e-05 s⁻¹ and the kon was 160000 M⁻¹ s⁻¹.
